Data as given in patent publication US20250002565A1.

Target: recombinant HIV gp41 (HIV)
Assay: ELISA against recombinant gp41 (in PBS)

B1: recombinant class switched IgA2 antibody (antibody, V domains shown)
VH: QVQLVESGGGVVQPGRSLRLSCAASGFTFSSYAIHWVRQAPGKGLEWVAVISYDGSNRYYADSVKGRFTISRDNSKNTLYLQMNSLRPEDTAVYYCARDRFSAVASTPTYHNYFYMDVWGKGTTVTVSS
An EC50 of 1.29 µg/mL was found for B1 in this work.
